Assay results reported in patent US10239925B2, “Peptides and combination of peptides for use in immunotherapy against ovarian cancer and other cancers” (IMMATICS BIOTECHNOLOGIES GMBH, priority 2015, dated 2019).

These substances were tested against HLA-A*02:01 (Homo sapiens, UniProt P04439, D140Y/D185E/D98H/E176V/E277Q/G131W/G231S/I119V/I121R/I166T/I218V/L300P/L318F/N151K/N90K/P208A/P217A/Q86G/Q94H/R138H/R169H/T345S) (assay: MHC binding assay (UV-ligand exchange, anti-β2m ELISA, peptide exchange yield)). Conditions: binding to HLA-A*02:01.
How it was run: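 Yield of stabilized complexes quantified via the β2m light chain in an ELISA (streptavidin capture, 100-fold diluted monomers, HRP anti-β2m 2 ug/ml at 37 °C, TMB, A450). The complexes come from UV-triggered replacement of a photocleavable ligand by the candidate peptide.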

Substance | Peptide exchange (MHC class I binding score, peptide exchange yield)
69 (FQLDPSSGVLVTV; listed as Homo sapiens) [compound 69] | “+++” (>50 = +++)
261 (YVLEFLEEI; listed as Homo sapiens) [compound 261] | “++” (>20% = ++)
229 (RLPGPLGTV; listed as Homo sapiens) [compound 229] | “++” (>20% = ++)
18 (YLVAKLVEV; listed as Homo sapiens) [compound 18] | “++” (>20% = ++)
99 (ALVSKGLATV; listed as Homo sapiens) [compound 99] | “++” (>20% = ++)
70 (GLLDYPVGV; listed as Homo sapiens) [compound 70] | “+++” (>50 = +++)
75 (GLLEVMVNL; listed as Homo sapiens) [compound 75] | “+++” (>50 = +++)
255 (VLASYNLTV; listed as Homo sapiens) [compound 255] | “+++” (>50 = +++)
13 (YLMDESLNL; listed as Homo sapiens) [compound 13] | “+++” (>50 = +++)
251 (ALYTGFSILV; listed as Homo sapiens) [compound 251] | “++” (>20% = ++)
164 (ALLPQPKNLTV; listed as Homo sapiens) [compound 164] | “+++” (>50 = +++)
78 (SLFSSLEPQIQPV; listed as Homo sapiens) [compound 78] | “+++” (>50 = +++)
163 (ALDEMGDLLQL; listed as Homo sapiens) [compound 163] | “+++” (>50 = +++)
222 (NLIENVQRL; listed as Homo sapiens) [compound 222] | “++” (>20% = ++)
153 (FLIANVLYL; listed as Homo sapiens) [compound 153] | “+” (>10% = +)
223 (ALLENIALYL; listed as Homo sapiens) [compound 223] | “+++” (>50 = +++)
43 (VLSSLEINI; listed as Homo sapiens) [compound 43] | “++” (>20% = ++)
178 (ALTEIAFVV; listed as Homo sapiens) [compound 178] | “++++” (>75% = ++++)
128 (YLFDDPLSAV; listed as Homo sapiens) [compound 128] | “++” (>20% = ++)
42 (VLLQKIVSA; listed as Homo sapiens) [compound 42] | “+++” (>50 = +++)
119 (FLYIGDIVSL; listed as Homo sapiens) [compound 119] | “++++” (>75% = ++++)
207 (GLTSTNAEV; listed as Homo sapiens) [compound 207] | “++” (>20% = ++)
151 (KILQQLVTL; listed as Homo sapiens) [compound 151] | “+++” (>50 = +++)
257 (SIFSAFLSV; listed as Homo sapiens) [compound 257] | “+++” (>50 = +++)
102 (YLFESEGLVL; listed as Homo sapiens) [compound 102] | “+++” (>50 = +++)
244 (SLFGGTEITI; listed as Homo sapiens) [compound 244] | “+++” (>50 = +++)
26 (ALLELAEEL; listed as Homo sapiens) [compound 26] | “+++” (>50 = +++)
133 (KVLSNIHTV; listed as Homo sapiens) [compound 133] | “++” (>20% = ++)

The remaining lines, values ahead:

Peptide exchange (MHC class I binding score, peptide exchange yield) | Substance
“+++” (>50 = +++) | 309 (GLFDGVPTTA; listed as Homo sapiens) [compound 309]
“+++” (>50 = +++) | 476 (ALMERTGYSMV; listed as Homo sapiens) [compound 476]
“+++” (>50 = +++) | 327 (GLAPFTEGISFV; listed as Homo sapiens) [compound 327]
“+++” (>50 = +++) | 467 (FLAKDFNFL; listed as Homo sapiens) [compound 467]
“+++” (>50 = +++) | 577 (VMFEDGVLMRL; listed as Homo sapiens) [compound 577]
“+++” (>50 = +++) | 330 (QLALKVEGV; listed as Homo sapiens) [compound 330]
“+++” (>50 = +++) | 369 (GLFPEHLIDV; listed as Homo sapiens) [compound 369]
“++” (>20% = ++) | 372 (TMLLNIPLV; listed as Homo sapiens) [compound 372]
“++” (>20% = ++) | 504 (GLSDGNPSL; listed as Homo sapiens) [compound 504]
“+++” (>50 = +++) | 465 (QLCDLNAEL; listed as Homo sapiens) [compound 465]
“++” (>20% = ++) | 275 (YLVYILNEL; listed as Homo sapiens) [compound 275]
“+++” (>50 = +++) | 477 (ALLPASGQIAL; listed as Homo sapiens) [compound 477]
“+++” (>50 = +++) | 306 (ALVNVQIPL; listed as Homo sapiens) [compound 306]
“++” (>20% = ++) | 559 (VTVPPGPSL; listed as Homo sapiens) [compound 559]
“++++” (>75% = ++++) | 527 (FLLEPGNLEV; listed as Homo sapiens) [compound 527]
“+++” (>50 = +++) | 332 (YLISELEAA; listed as Homo sapiens) [compound 332]
“+++” (>50 = +++) | 314 (ALIAEGIALV; listed as Homo sapiens) [compound 314]
“++” (>20% = ++) | 270 (LLLDEEGTFSL; listed as Homo sapiens) [compound 270]
“++” (>20% = ++) | 505 (SLAPGDVVRQV; listed as Homo sapiens) [compound 505]
“+++” (>50 = +++) | 394 (LLAVIGGLVYL; listed as Homo sapiens) [compound 394]

Peptide exchange (MHC class I binding score, peptide exchange yield) | Substance
“+++” (>50 = +++) | 298 (VMITKLVEV; listed as Homo sapiens) [compound 298]
“+++” (>50 = +++) | 342 (HIYDKVMTV; listed as Homo sapiens) [compound 342]
“+++” (>50 = +++) | 436 (HLAEVSAEV; listed as Homo sapiens) [compound 436]
“+++” (>50 = +++) | 537 (TLAPGEVLRSV; listed as Homo sapiens) [compound 537]
“+++” (>50 = +++) | 472 (KLLEVSDDPQV; listed as Homo sapiens) [compound 472]
“++” (>20% = ++) | 451 (LLLLDTVTMQV; listed as Homo sapiens) [compound 451]
“+++” (>50 = +++) | 448 (NLLETKLQL; listed as Homo sapiens) [compound 448]
“+++” (>50 = +++) | 583 (ILANDGVLLAA; listed as Homo sapiens) [compound 583]
“+++” (>50 = +++) | 427 (ALLPLSPYL; listed as Homo sapiens) [compound 427]
“++” (>20% = ++) | 580 (LLMENAERV; listed as Homo sapiens) [compound 580]
“+++” (>50 = +++) | 552 (GLLDLPFRVGV; listed as Homo sapiens) [compound 552]
“+++” (>50 = +++) | 471 (YLYNNMIAKI; listed as Homo sapiens) [compound 471]
“++++” (>75% = ++++) | 602 (YLLEQIKLIEV; listed as Homo sapiens) [compound 602]
“+++” (>50 = +++) | 556 (FLTDLEDLTL; listed as Homo sapiens) [compound 556]
“+++” (>50 = +++) | 356 (KLLGKLPEL; listed as Homo sapiens) [compound 356]
“+++” (>50 = +++) | 609 (ALWKQLLEL; listed as Homo sapiens) [compound 609]
“++” (>20% = ++) | 432 (TLIEESAKV; listed as Homo sapiens) [compound 432]
“+++” (>50 = +++) | 326 (FLPEALDFV; listed as Homo sapiens) [compound 326]
“++” (>20% = ++) | 570 (ALANQIPTV; listed as Homo sapiens) [compound 570]
